Measurements as given in patent publication US20150023967A1 (published 2015).

Assays:
BCMA 101 x CD3 = assay: SPR (Biacore)
BCMA 102 x CD3 = assay: SPR (Biacore)

B1: Human BCMA (other)
chain (part 1 of 2): MLQMAGQCSQNEYFDSLLHACIPCQLRCSSNTPPLTCQRYCNASVTNSVKGTNASGGGGSEAHKSEIAHRYNDLGEQHFKGLVLIAFSQYLQKCSYDEHAKLVQEVTDFAKTCVADESAANCDKSLHTLFGDKLCAIPNLRENYGELADCCTKQEPERNECFLQHKDDNPSLPPFERPEAEAMCTSFKENPTTFMGHYLHEVARRHPYFYAPELLYYAEQYNEILTQCCAEADKESCLTPKLDGVKEKALVSSVRQRMKCSSMQKFGERAFKAWAVARLSQTFPNADFAEITKLATDLTKVNKECCHGDLLECADDRAELAKYMCENQATISSKLQTCCDKPLLKKAHCLSEVEHDTMPADLPAIAADFVEDQEVCKNYAEAKDVFLGTFLYEYSRRHPDYSVSLLLRLAKKYEATLEKCCAEANPPACYGTVLAEFQPLVEEPKNLVKTNCDLYEKLGEYGFQNAILVRYTQKAPQVSTPTLVEAARNLGRVGTKCCTLPEDQRLPCVEDYLSAILNRVCLLHEKTPVSEHVTKCCSGSLVERRPCFSALTVDETYVPKEFKAETFTFHSDICTLPEKEKQIKKQTALAELVKHKPKATAEQLKTVMDDFAQFLDTCCKAADKDTCFSTEGPNLVTRCKDALA
chain (part 2 of 2): SGHHGGHHGGHH
A Kd (BCMA 101 x CD3) of 0.5 nM and a Kd (BCMA 102 x CD3) of 0.6 nM were found for B1 in this work.
